{
  "source": "the Immune Epitope Database (IEDB)",
  "key": {"[1]": {"target": "HLA-C*15:02", "experiment": "IEDB peptide-MHC binding, purified MHC/direct/fluorescence; filed as Kd, often an IC50 or EC50 that approximates it; ≥ and ≤ were set here for values at or beyond the usual limits of such assays", "conditions": "source organism: Vibrio vulnificus CMCP6"}, "[2]": {"target": "HLA-B*48:01", "experiment": "IEDB peptide-MHC binding, purified MHC/competitive/fluorescence; filed as Kd, often an IC50 or EC50 that approximates it; ≥ and ≤ were set here for values at or beyond the usual limits of such assays", "conditions": "source organism: Vibrio vulnificus CMCP6"}, "[3]": {"target": "HLA-B*57:01", "experiment": "IEDB peptide-MHC binding, purified MHC/direct/fluorescence; filed as Kd, often an IC50 or EC50 that approximates it; ≥ and ≤ were set here for values at or beyond the usual limits of such assays"}, "[4]": {"target": "HLA-B*38:01", "experiment": "IEDB peptide-MHC binding, purified MHC/direct/fluorescence; filed as Kd, often an IC50 or EC50 that approximates it; ≥ and ≤ were set here for values at or beyond the usual limits of such assays", "conditions": "source organism: Mycobacterium tuberculosis str. Haarlem"}, "[5]": {"target": "HLA-B*18:01", "experiment": "IEDB peptide-MHC binding, purified MHC/direct/fluorescence; filed as Kd, often an IC50 or EC50 that approximates it; ≥ and ≤ were set here for values at or beyond the usual limits of such assays"}, "[6]": {"target": "HLA-B*40:01", "experiment": "IEDB peptide-MHC binding, purified MHC/direct/fluorescence; filed as Kd, often an IC50 or EC50 that approximates it; ≥ and ≤ were set here for values at or beyond the usual limits of such assays"}, "[7]": {"target": "HLA-B*48:01", "experiment": "IEDB peptide-MHC binding, purified MHC/direct/fluorescence; filed as Kd, often an IC50 or EC50 that approximates it; ≥ and ≤ were set here for values at or beyond the usual limits of such assays"}, "[8]": {"target": "HLA-B*51:01", "experiment": "IEDB peptide-MHC binding, purified MHC/direct/fluorescence; filed as Kd, often an IC50 or EC50 that approximates it; ≥ and ≤ were set here for values at or beyond the usual limits of such assays", "conditions": "source organism: Mycobacterium tuberculosis"}, "[9]": {"target": "HLA-A*11:01", "experiment": "IEDB peptide-MHC binding, purified MHC/direct/fluorescence; filed as Kd, often an IC50 or EC50 that approximates it; ≥ and ≤ were set here for values at or beyond the usual limits of such assays"}, "[10]": {"target": "HLA-B*07:02", "experiment": "IEDB peptide-MHC binding, purified MHC/direct/fluorescence; filed as Kd, often an IC50 or EC50 that approximates it; ≥ and ≤ were set here for values at or beyond the usual limits of such assays"}, "[11]": {"target": "HLA-A*02:01", "experiment": "IEDB peptide-MHC binding, purified MHC/direct/fluorescence; filed as Kd, often an IC50 or EC50 that approximates it; ≥ and ≤ were set here for values at or beyond the usual limits of such assays"}, "[12]": {"target": "HLA-B*58:01", "experiment": "IEDB peptide-MHC binding, purified MHC/direct/fluorescence; filed as Kd, often an IC50 or EC50 that approximates it; ≥ and ≤ were set here for values at or beyond the usual limits of such assays"}, "[13]": {"target": "HLA-B*15:01", "experiment": "IEDB peptide-MHC binding, purified MHC/direct/fluorescence; filed as Kd, often an IC50 or EC50 that approximates it; ≥ and ≤ were set here for values at or beyond the usual limits of such assays", "conditions": "source organism: Mycobacterium tuberculosis"}, "[14]": {"target": "HLA-A*31:01", "experiment": "IEDB peptide-MHC binding, purified MHC/direct/fluorescence; filed as Kd, often an IC50 or EC50 that approximates it; ≥ and ≤ were set here for values at or beyond the usual limits of such assays"}, "[15]": {"target": "HLA-A*03:01", "experiment": "IEDB peptide-MHC binding, purified MHC/direct/fluorescence; filed as Kd, often an IC50 or EC50 that approximates it; ≥ and ≤ were set here for values at or beyond the usual limits of such assays", "conditions": "source organism: Mycobacterium tuberculosis"}, "[16]": {"target": "HLA-A*69:01", "experiment": "IEDB peptide-MHC binding, purified MHC/direct/fluorescence; filed as Kd, often an IC50 or EC50 that approximates it; ≥ and ≤ were set here for values at or beyond the usual limits of such assays"}, "[17]": {"target": "HLA-A*01:01", "experiment": "IEDB peptide-MHC binding, purified MHC/direct/fluorescence; filed as Kd, often an IC50 or EC50 that approximates it; ≥ and ≤ were set here for values at or beyond the usual limits of such assays"}, "[18]": {"target": "HLA-B*46:01", "experiment": "IEDB peptide-MHC binding, purified MHC/direct/fluorescence; filed as Kd, often an IC50 or EC50 that approximates it; ≥ and ≤ were set here for values at or beyond the usual limits of such assays", "conditions": "source organism: Mycobacterium tuberculosis"}, "[19]": {"target": "HLA-B*15:17", "experiment": "IEDB peptide-MHC binding, purified MHC/direct/fluorescence; filed as Kd, often an IC50 or EC50 that approximates it; ≥ and ≤ were set here for values at or beyond the usual limits of such assays"}, "[20]": {"target": "HLA-B*27:05", "experiment": "IEDB peptide-MHC binding, purified MHC/direct/fluorescence; filed as Kd, often an IC50 or EC50 that approximates it; ≥ and ≤ were set here for values at or beyond the usual limits of such assays"}, "[21]": {"target": "HLA-B*39:01", "experiment": "IEDB peptide-MHC binding, purified MHC/competitive/fluorescence; filed as Kd, often an IC50 or EC50 that approximates it; ≥ and ≤ were set here for values at or beyond the usual limits of such assays", "conditions": "source organism: Mycobacterium tuberculosis variant bovis BCG str. Pasteur 1173P2"}, "[22]": {"target": "HLA-B*15:09", "experiment": "IEDB peptide-MHC binding, purified MHC/competitive/fluorescence; filed as Kd, often an IC50 or EC50 that approximates it; ≥ and ≤ were set here for values at or beyond the usual limits of such assays"}, "[23]": {"target": "HLA-B*40:02", "experiment": "IEDB peptide-MHC binding, cellular MHC/competitive/fluorescence; ≥ and ≤ were set here for values at or beyond the usual limits of such assays", "conditions": "source organism: Homo sapiens"}, "[24]": {"target": "HLA-B*73:01", "experiment": "IEDB peptide-MHC binding, purified MHC/direct/fluorescence; filed as Kd, often an IC50 or EC50 that approximates it; ≥ and ≤ were set here for values at or beyond the usual limits of such assays", "conditions": "source organism: Homo sapiens"}, "[25]": {"target": "HLA-C*07:02", "experiment": "IEDB peptide-MHC binding, purified MHC/direct/fluorescence; filed as Kd, often an IC50 or EC50 that approximates it; ≥ and ≤ were set here for values at or beyond the usual limits of such assays", "conditions": "source organism: Homo sapiens"}, "[26]": {"target": "HLA-A*26:01", "experiment": "IEDB peptide-MHC binding, purified MHC/direct/fluorescence; filed as Kd, often an IC50 or EC50 that approximates it; ≥ and ≤ were set here for values at or beyond the usual limits of such assays", "conditions": "source organism: Ravn virus - Ravn, Kenya, 1987"}, "[27]": {"target": "HLA-B*44:02", "experiment": "IEDB peptide-MHC binding, purified MHC/direct/fluorescence; filed as Kd, often an IC50 or EC50 that approximates it; ≥ and ≤ were set here for values at or beyond the usual limits of such assays", "conditions": "source organism: Marburg virus - Musoke, Kenya, 1980"}, "[28]": {"target": "HLA-B*08:01", "experiment": "IEDB peptide-MHC binding, purified MHC/direct/fluorescence; filed as Kd, often an IC50 or EC50 that approximates it; ≥ and ≤ were set here for values at or beyond the usual limits of such assays", "conditions": "source organism: Ravn virus - Ravn, Kenya, 1987"}, "[29]": {"target": "HLA-A*68:02", "experiment": "IEDB peptide-MHC binding, purified MHC/direct/fluorescence; filed as Kd, often an IC50 or EC50 that approximates it; ≥ and ≤ were set here for values at or beyond the usual limits of such assays", "conditions": "source organism: Marburg virus - Musoke, Kenya, 1980"}, "[30]": {"conditions": "source organism: Mycobacterium tuberculosis"}, "[31]": {"conditions": "source organism: Marburg virus - Musoke, Kenya, 1980"}},
  "data": [
    {"sequence": "RIHDIAVQL", "values": [
      {"measurement": "Kd", "setting": "[1]", "value": 0.196, "unit": "µM"},
      {"measurement": "Kd", "setting": "[2]", "value": 0.111, "unit": "µM"}
    ]},
    {"sequence": "GPASLPTAL", "values": [
      {"measurement": "Kd", "setting": "[3]; [30]", "value": "≥ 20", "unit": "µM"},
      {"measurement": "Kd", "setting": "[4]", "value": "≥ 20", "unit": "µM"},
      {"measurement": "Kd", "setting": "[5]; [30]", "value": "≥ 20", "unit": "µM"},
      {"measurement": "Kd", "setting": "[6]; [30]", "value": "≥ 20", "unit": "µM"},
      {"measurement": "Kd", "setting": "[7]; [30]", "value": 2.82, "unit": "µM"},
      {"measurement": "Kd", "setting": "[8]", "value": "≥ 20", "unit": "µM"},
      {"measurement": "Kd", "setting": "[9]; [30]", "value": "≥ 20", "unit": "µM"},
      {"measurement": "Kd", "setting": "[10]; [30]", "value": 0.0413, "unit": "µM"},
      {"measurement": "Kd", "setting": "[11]; [30]", "value": "≥ 20", "unit": "µM"},
      {"measurement": "Kd", "setting": "[12]; [30]", "value": "≥ 20", "unit": "µM"},
      {"measurement": "Kd", "setting": "[13]", "value": "≥ 20", "unit": "µM"},
      {"measurement": "Kd", "setting": "[14]; [30]", "value": "≥ 20", "unit": "µM"},
      {"measurement": "Kd", "setting": "[15]", "value": "≥ 20", "unit": "µM"},
      {"measurement": "Kd", "setting": "[16]; [30]", "value": 1.24, "unit": "µM"},
      {"measurement": "Kd", "setting": "[17]; [30]", "value": "≥ 20", "unit": "µM"},
      {"measurement": "Kd", "setting": "[18]", "value": "≥ 20", "unit": "µM"},
      {"measurement": "Kd", "setting": "[19]; [30]", "value": "≥ 20", "unit": "µM"},
      {"measurement": "Kd", "setting": "[20]; [30]", "value": "≥ 20", "unit": "µM"},
      {"measurement": "Kd", "setting": "[21]", "value": 0.679, "unit": "µM"},
      {"measurement": "Kd", "setting": "[22]; source organism: Mycobacterium tuberculosis variant bovis BCG str. Pasteur 1173P2", "value": "≥ 20", "unit": "µM"}
    ]},
    {"sequence": "SEFSDVDKL", "values": [
      {"measurement": "IC50", "setting": "[23]", "value": 1.4, "unit": "µM"}
    ]},
    {"sequence": "FPLWWVSSI", "values": [
      {"measurement": "Kd", "setting": "[24]", "value": "≥ 20", "unit": "µM"},
      {"measurement": "Kd", "setting": "[25]", "value": 2.3, "unit": "µM"}
    ]},
    {"sequence": "AEILSGRVI", "values": [
      {"measurement": "Kd", "setting": "[3]; [31]", "value": "≥ 20", "unit": "µM"},
      {"measurement": "Kd", "setting": "[5]; [31]", "value": 16.7, "unit": "µM"},
      {"measurement": "Kd", "setting": "[6]; [31]", "value": 0.0055, "unit": "µM"},
      {"measurement": "Kd", "setting": "[7]; [31]", "value": "≥ 20", "unit": "µM"},
      {"measurement": "Kd", "setting": "[26]", "value": "≥ 20", "unit": "µM"},
      {"measurement": "Kd", "setting": "[9]; [31]", "value": "≥ 20", "unit": "µM"},
      {"measurement": "Kd", "setting": "[27]", "value": "≥ 21", "unit": "µM"},
      {"measurement": "Kd", "setting": "[10]; [31]", "value": "≥ 20", "unit": "µM"},
      {"measurement": "Kd", "setting": "[11]; [31]", "value": "≥ 20", "unit": "µM"},
      {"measurement": "Kd", "setting": "[12]; [31]", "value": "≥ 20", "unit": "µM"},
      {"measurement": "Kd", "setting": "[14]; [31]", "value": "≥ 20", "unit": "µM"},
      {"measurement": "Kd", "setting": "[28]", "value": "≥ 20", "unit": "µM"},
      {"measurement": "Kd", "setting": "[16]; [31]", "value": "≥ 20", "unit": "µM"},
      {"measurement": "Kd", "setting": "[29]", "value": "≥ 20", "unit": "µM"},
      {"measurement": "Kd", "setting": "[17]; [31]", "value": "≥ 20", "unit": "µM"},
      {"measurement": "Kd", "setting": "[19]; [31]", "value": "≥ 20", "unit": "µM"},
      {"measurement": "Kd", "setting": "[20]; [31]", "value": "≥ 20", "unit": "µM"},
      {"measurement": "Kd", "setting": "[22]; source organism: Orthomarburgvirus marburgense", "value": "≥ 20", "unit": "µM"}
    ]}
  ]
}
